The test system of data set [1] is mouse colonic mucus. Nature of the data set: Mucus staining on fixed tissues, mouse colon. To be noted: fixed tissue, 1 μg/mL. The procedure: FIGS. 11A-11C. Mucus staining using Cy5-MUB70 on fixed tissues. (FIG. 11A) Guinea pig colon, (FIG. 11B) rabbit ileum and (FIG. 11C) mouse colon were fixed in PFA 4%. Immunofluorescent staining was performed using Cy5-MUB70 (1 μg/mL) (blue). Actin is stained in red (Phall.-RRX), Muc2 is stained in green (α-Muc2). Observations were performed using a confocal microscope. Bar is 50 μm.
Ex vivo human colon samples were obtained from Dr. E. Labruyère (Institut Pasteur) and tissue processing was performed as described previously and stored in serum free RMPI media (surgical procedure is described herein). Human mucinous carcinoma formamide fixed samples were obtained from Dr. T. Lazure (Hôpitaux Universitaires Paris-Sud, Kremlin-Bicêtre) and Pr. I. Sobhani (Hôpital Henri Mondor, Créteil). Rabbit colon and ileum samples were collected on naïve New Zealand white rabbits weighting 2.5-3 kg and fixed in PFA 3%. Same procedure was applied on intestine samples collected on guinea pigs (Charles River) and C57/B6 mice (Janvier).
Following PFA 4% or Carnoy fixation, as indicated, samples were washed in PBS, incubated at 4° C. in PBS containing 12% sucrose for 90 min, then in PBS with 18% sucrose overnight, and frozen in OCT (Sakura) on dry ice. 7 μm sections were obtained using a cryostat CM-3050 (Leica). […]

The subject of data set [2] is Hela cells. The data set is described as follows: Cell toxicity, Sytox Green assay. The format is cell-based, human. To be noted: 1 μg/mL, up to 10 h, serum starved media, Student test NS, p>0.05, n=3. How it is done:
(§1) FIGS. 8A-8D. (FIG. 8A) Cell toxicity of Cy5-MUB70 tested on HT-29-MTX and Hela epithelial cells. Cell survival was assessed using Sytoxgreen dye on cultures exposed to 1 μg/mL Cy5-MUB70 from 0 to 10 h, as indicated. NS indicates P>0.05 (Student's T-test). (FIG. 8B) Rabbit colonic and ileal mucus staining on fixed tissues (PFA 4%), using Cy5-MUB70 (1 μg/mL) (blue). Actin is stained in red (Phall.-RRX). Bar is 50 μm. (FIG. 8C) Human ex vivo colon sample was incubated for 2 h with 1 μg/mL Cy5-MUB70 in a serum-free media. Resulting fluorescent staining was assessed using a two-photons microscope (see Methods). Z-projection, performed using ImageJ software, allows 3D localization of Cy5-MUB70 fluorescence signal. […] Human tissue autofluorescence is detected in the same red channel as Cy5.
(§2) Hela cells were grown in DMEM medium supplemental with 10% FCS. […] Cell viability was determined by staining with Sytox Green (Invitrogen) as described by the manufacturer. […] Fluorescence was measured using a FACS flow cytometer (BD systems) recording at least 10,000 events. Data were analysed with CellQuest Pro software (BD Biosciences), and expressed as percentage survival.
(§3) As Cy5-MUB70 was envisaged to be used on living cells and organs, its cell-toxicity has been evaluated. This probe was incubated on differentiated HT-29 MTX and on Hela cells as cell viability was assessed using a Sytox Green assay (see Methods).

The subject of data set [3] is HT-29 MTX cells. Nature of the data set: Cell toxicity, Sytox Green assay. The class given is cell-based, human. The note with it: differentiated HT-29 MTX; 1 μg/mL, up to 10 h, serum starved media; Student test NS, p>0.05, n=3. The procedure: as §1, §2, §3
The subject of data set [4] is neutrophiles (white blood cells) in rabbit ileum sub-mucosa. Nature of the data set: Staining of neutrophiles in rabbit ileum sub-mucosa. The note with it: PFA 4% fixed rabbit ileum; colocalized with α-elastase (PMN) signal. How it is done:
FIG. 13. Staining of individual neutrophiles (white blood cells) in rabbit ileum sub-mucosa. Cy5-MUB70 was incubated on PFA 4% fixed tissues. Signal was colocalized with an α-elastase (PMN) signal. (Primary antibody is α-elastase (PMN) 1:400 and secondary antibody is anti-mouse GFP 1:400, MUBCys5 1:400, Phalloidin-RRX 1:400). […] In particular, granules staining is achieved.

Data set [5] relates to mucus layer of differentiated HT-29 MTX human epithelial colonic cells. The data set is described as follows: Staining of living HT-29 MTX cells, epifluorescent microscope. To be noted: living differentiated HT-29 MTX; 1 μg/mL, 2 h, serum-free media. The format is cell-based. The procedure:
FIGS. 3A-3B. Cy5-MUB70 colonic mucus binding property. (FIG. 3A) HT-29 MTX living cells were incubated for 2 h with Cy5-MUB70 in a serum-free media. The resulting fluorescent signal (red) was visualized at the surface of the cell layer using an epifluorescent microscope. Z-projection, performed using ImageJ software, allowed 3D localization of Cy5-MUB70 fluorescence signal in the mucus layer. Bar is 10 μm (FIG. 3B) MPE and SHG imaging of the binding of Cy5-MUB70 to the human colonic mucus. […] Human tissue autofluorescence is detected in the same red channel as Cy5.
For dot blot assay, goat α-MUC2 pAbs (sc-13312, Santa Cruz), mouse α-MUC5ac (Abcam), mouse α-MUC5b mAbs (Abcam), mouse α-MUC6 mAbs (sc-33668, Santa Cruz), mouse α-lactoferrin mAbs (sc-52048, Santa Cruz) and rabbit α-FCGBP pAbs (Sigma-Aldrich) antibodies were used at a 1:100 dilution. Corresponding HRP-Conjugated antibodies were used at a 1:1000 dilution. For staining living HT-29 MTX cells and on human colon ex vivo model, Cy5-MUB70 was incubated (1 μg/mL) in a serum starved culture medium (DMEM and RPMI respectively) for two hours at 37° C. prior observation.
Fluorescent labeled tissues and cells were observed using a widefield epifluorescent microscope (Zeiss Definite Focus), laser-scanning confocal microscope (Leica TCS SP5) or a two-photons confocal microscope (Zeiss LSM710), as indicated. […]

The values that follow come from US10138280B2, “Polypeptides targeting glycosylated MUC2 proteins, methods of synthesis, their nucleic acids and uses thereof” (INSTITUT PASTEUR, priority 2011, dated 2018).

B1: Cy5-MUB70: Cy5-labelled MUB70 polypeptide, labelled via Cy5 maleimide on N-terminal cysteine (conjugate)
peptide: CVHVQYIDGETDQMLRQDDLDGYTDETIPYSTAEGIKKFEGDGYELFKDNFPAGEKFDNDDTNDQFYTVIF
Turning to B1, the colonic mucus staining entry in data set [1] was “not stained”. For the same molecule, the cell viability result in data set [2] and in data set [3] was “do not affect significantly cell viability” in each case. The “neutrophile staining in tissue” value in data set [4] is “binding specifically a neutrophile component”. Moreover, in data set [5], the “mucus layer binding on living cells” value is listed as “binding the mucus layer at the surface of the cells”.
